Results taken from US20140234868A1, “USE FOR GLYCOLIPOPROTEIN GINTONIN, ISOLATED AND IDENTIFIED FROM GINSENG, AS A NATURAL MEDICAL-PLANT DERIVED LIGAND” (KONKUK UNIVERSITY INDUSTRIAL COOPERATION CORP., priority 2011, published 2014).

What was measured:
LPA4 receptor = LPA4 receptor (Homo sapiens, UniProt Q99677); assay: Intracellular free Ca2+ (Fura-2AM) in LPA4-expressing B103 cells; type: cell-based; parameters: host or cells: B103 rat neuroblastoma cells; conditions: gintonin
From the text: LPA family receptors are endogenous to cells of most organs. B103 rat neuroblastoma cells, known as LPA receptor-null cells (Valentine et al., Biochim Biophys Acta 1780. 597-605) were transiently transfected with a plasmid (vector) carrying one of genes coding for LPA1(edg-2), LPA2(edg-4), LPA3(edg-7), LPA4, LPA5 and LPA6 receptors or a plasmid carrying none of them (empty vector). Two or three days after transfection, the cells are suspended, and made permeable. Then, the permeable cells are treated with Fura-2AM, a fluorescent dye binding to calcium, and then with gintonin, followed by spectrofluorephotometry to examine whether gintonin induces an increase in intracellular free Ca^2+ level. […]

HUVECs = assay: Tubular formation of HUVECs on Matrigel; type: cell-based, human; conditions: gintonin 30 μg/ml, 4 hrs
Procedure: To examine the effect of gintonin on angiogenesis, formation of vascular tube-like structures on Matrigel was compared between the control and the gintonin-treated group (Kim et al. Biol Pharm Bull 30: 1674-1679).
Briefly, cells were incubated for 6 hrs in M199 (1% FBS). After trypsinization, the cells were suspended in M199 (1% FBS), and seeded (2×10^5 cells/well) to 24-well plates coated with Matrigel (250 μl/well).
The cells were incubated at 37° C. for 4 hrs in M199 (1% FBS) containing gintonin (30 μg/ml), and observed for tubular formation by inverted fluorescence microscopy (AxioVert200, Carl Zeiss).

[1] = system: mouse EAT (Ehrlich Ascites Tumor); conditions: mouse EAT cells; PLC-coupled pathway; cited from earlier work

LPA4 receptor, sequence (Q99677 whole entry): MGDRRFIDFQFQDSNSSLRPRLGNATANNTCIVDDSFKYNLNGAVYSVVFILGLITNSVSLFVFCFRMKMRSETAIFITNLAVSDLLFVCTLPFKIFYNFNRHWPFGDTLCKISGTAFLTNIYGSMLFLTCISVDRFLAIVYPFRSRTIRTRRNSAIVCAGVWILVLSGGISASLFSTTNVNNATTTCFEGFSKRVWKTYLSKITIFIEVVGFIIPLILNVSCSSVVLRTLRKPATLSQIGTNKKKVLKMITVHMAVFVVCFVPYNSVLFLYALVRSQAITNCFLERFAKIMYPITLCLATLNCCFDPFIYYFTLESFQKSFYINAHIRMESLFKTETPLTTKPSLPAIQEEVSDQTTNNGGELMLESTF

B1: gintonin: ginseng-derived glycolipoprotein; structural protein of ginseng major latex-like protein (MLP151) and ribonuclease-like storage proteins; crude gintonin used in tests (protein)
chain 1: MGLTGKLICQTGIKSDGDVFHELFGTRPHHVPNITPANIQGCDLHEGEFGKVGSVVIWNYSIDGNAMIAKEEIVAIDEEDKSVTFKVVEGHLFEEFKSIVFSVHVDTKGEDNLVTWSIDYEKLNESVKDPTSYLDFLLSVTRDIEAHHLPK
chain 2: RSDYPWAMFALRLQWPAGFCEVNNACDTKSLLNTFTIHGLYPYNAKGTPALYCDGTAFDVNSVSDFLAEMHLAWPSHETNTEDIQFWEHEWKKHGRCSEALLKQTDYFRTALAFRKAFDIVGLLNQEGIYPNNDLYRPKMIKEAIKKHLNAVPEIDFTKNENSEYVLTDINVCVNQQATRFVDCPTDDATDDYRLKFVRLPSKMKFADPRTNSII
For B1, the “increase in intracellular calcium level” value (LPA4 receptor) is listed as 61.6 ± 11.8 µM, the tubular formation (HUVECs) is listed as “promoted tubular formation” and the “transient increase in cytoplasmic free Ca2+ level” value [1] is listed as “induces a transient increase in cytoplasmic free Ca^2+ level”.
